Assay results reported in a protein production outcome set (Wang et al. 2014).

Test: label from the status in PepcDB records

Sequence | protein production
MVRDIEDEIRDEKNPRPLDEDDIALLKTYGLGPYSAPIKKVEKEIKDLAKKINDLCGIKESDTGLAPPSQWDLVSDKQMMQEEQPLQVARCTKIISPNTEDAKYVINVKQIAKFVVGLGDKVSPTDIEEGMRVGVDRNKYQIQIPLPPKIDPSVTMMTVEEKPDVTYNDVGGCKEQIEKMREVVELPMLHPEKFVKLGIDPPKGVLCYGPPGTGKTLLARAVANRTDACFIRVIGSELVQKYVGEGARMVRELFQMARSKKACIVFFDEVDAIGGARFDDGVGGDNEVQRTMLEIVNQLDGFDARGNIKVLMATNRPDTLDPALLRPGRLDRKVEFGLPDLESRTQIFKIHTRTMNCERDIRFELLARLCPNSTGADIRSVCTEAGMYAIRARRKTVTEKDFLDAVNKVIKGYQKFSATPKYMVYN | failed
MFRVLHLADLHLGYRPDLPAPVREEVYRARNRVLQAAVDLALDPRQGISLVLIAGDLFDNHRPEASLVEETIRQLTRLEAAGIQVITVPGNHDEITYNDAVYRREAGRWPGLLVTDPMPAKVATLKVKGDTCHLMAMAYTGGVTRVDGPLKAFPPAEGEGVNLAVFHGSLDWDGGERSLPLDGEALAAAGYDYIALGHIHRGGQRRLGRGLAVYAGMVAGKGFADPGTGSWTIVTLGDGPARVEQVPARVTPWRLVDLDVTAFQEPEELETAVRDALDPGALMQVRLTGSLAFDLDLEGLQARLGHPCPYLELVNETAGWTPEILESIAAEPTIRGLFVRRLQEKLAGSAGPGEAEVIRRAIFRGLLALKGGSR | failed
MQPYEKYLKLNSQKLRADQTDTERKLWQRINRDQLLGFRFNRQKPLLSYIVDFYCAKTKLIIELDGSQHYKPDYQEKDALRDAELNSLGFTVMRFSNDEVMREIEAVVEQIYLFLENVRTD | failed
MRNTILFGVSMILLANLCFGIMSAFVKITADYFSPMENVFYRSITMTLLLLLIYPFKPYRLKSYKQGGFKKLAFRVVVGGLAMLAFFYNIEKISLATATAFSQCAPIYTVLLSPLLLKEKLKRSTLISACIGIVGVVLISDPSVENVGPVEIFMGILSGIFVSLAYITLRDLREYYDKQAVILAFAFGMSLLGLVGMFIDIPFLSTGIHVPRKEDILWISLIGISGTLGQYFLTYAYMNAPAGIIAPIEYTRIVWGLLFGLYLGDTFLDLKSSLGVALILCSGLLIALPALLKELKKI | failed
MRRLRFSPRSSFARTLLLIVTLLFASLVTTYLVVLNFAILPSLQQFNKVLAYEVRMLMTDKLQLEDGTQLVVPPAFRREIYRELGISLYSNEAAEEAGLRWAQHYEFLSHQMAQQLGGPTEVRVEVNKSSPVVWLKTWLSPNIWVRVPLTEIHQGDFSPLFRYTLAIMLLAIGGAWLFIRIQNRPLVDLEHAALQVGKGIIPPPLREYGASEVRSVTRAFNHMAAGVKQLADDRTLLMAGVSHDLRTPLTRIRLATEMMSEQDGYLAESINKDIEECNAIIEQFIDYLRTGQEMPMEMADLNAVLGEVIAAESGYEREIETALYPGSIEVKMHPLSIKRAVANMVVNAARYGNGWIKVSSGTEPNRAWFQVEDDGPGIAPEQRKHLFQPFVRGDSARTISGTGLGLAIVQRIVDNHNGMLELGTSERGGLSIRAWLPVPVTRAQGTTKEG | failed
MGHHHHHHSHMSSRGHSTLPRTLMAPRMISEGDIGGIAQITSSLFLGRGSVASNRHLLQARGITCIVNATIEIPNFNWPQFEYVKVPLADMPHAPIGLYFDTVADKIHSVSRKHGATLVHCAAGVSRSATLCIAYLMKFHNVCLLEAYNWVKARRPVIRPNVGFWRQLIDYERQLFGKSTVKMVQTPYGIVPDVYEKESRHLMPYWGI | failed
MSRKLQDSAFRLLKKAAYDIDHDRYKKAFENLDKVEKIEKEVNNPEISYHLLFFKGFAKYRIDELEESLALFGKALEISWDLFSKEPEKEDYRSFMRDTIGSIGDILLKLEDPVKAREYISPMKGIFEKTVLGFEKLLESDPENPEYLEDFLKTIEHIGLCFEAGELTGDAVPLFDKKFDLIEKLLKSETEISEHLSSLDDSLMNFGRMCEGEEYLEEEYIEEAKRVYDRAIEIYGKVLDKDPENSETKVYLSYIYRYMAGMYSDQENLVKAEECYKEALGLLESEIENEPENIPVSENIEVSENISVPKNILFSMAIADMYKDSGLIFSDTEDTTKARDYYTKARETFRGLINKYPDLLEADKNLASSLDELAELFSEIGDFESAEMCYKDELNIYENLLQKEPENPENPEYSLKLSDIYRELGDLFAEEEEIEKARAYYDKEIEIYENLHPAEADKLMLEANKADTWNQIGRLYAEEEPETAVQYHERALPIFLEAFESDPTSEFFHEELLETLTVLGTLFKENREFEKAIRMYERVLEVQKQLLEIMPPASCHDHDHDHNLNHSHNLNHSHNLNHTHDLNHDHDLNHDLDHDHEMDHDHALEHCHDLDIETTYFELGVLHSEIGDEEKASVYHRQALERFEQIIAEQSGNPEILILTSGKAFFSGMSLLEKLESENKDSSIARKYYELALRTIEKLYEAYPMNLKLQEMLASFAEQIGDIYRDADKLEETIQEYEYAYRSLKILYENDPENPKHLHHMLGALNNIGIGYSVTDQQEKGKECFEKALALNESLAKSNPEDLNPLRRNFLLFSNYANLLEELGDSKTAKEYRKKAEELDAKLTEEDPEWTSLVEEL | failed
MRINILSEDTSNKIAAGEVVERPFSVVKELVENSIDAGAKTINIEIENGGRTLIKVLDDGYGIDKDDIEKAFMPHATSKISKLQDIYSINTLGFRGEALPSIASVSKTTLKSRTKENEFGREISISGGSVDYIKDCGTNIGTHIEVRDLFYNVPAREKFLKSTAKEASSISDIVNRLALAHSEISFRLINNGKRVITTYATDNLIDTIRAIYGKKICDNVISFERHTDLVSVHGYVGNAEISRGSRNNQSIFINKRYIKNKLITAAVENAVKSFMMINKFPFFIIFLDIFPEFVDVNVHPTKSEVKFQNERDIFKIIFDTVHEGIRNSLKESFKVEALKEEEDKLFDIKEDVITKNEIKHDDKIDGYIKKDSFPVPVQIPIDLKRPIENYDNSTKENKDRSFDDFREKDIIKETSQEKETYDIITNKKAKFPELRVIGQFNNTYILAESFEELYIIDQHAAHEKILFEKYREDIKNKGVSSQILITPSVVELLPEDFIYYDENKEVFKNAGFVIEYFGDNTVAIKEVPLFLGKPLVKDLFLEIIDNLKNMGSGETSEVKYRSIATAACKSAVKAYHELTHDEMKTLIQDLRFAEDPFNCPHGRPTIVRLTVTDFEKKFKRIQ | failed
MKFVKIALIVAVVAIALFAAKQTGILEIITDIKSLQDWIASFGVWGYAVFVAAFVFACVFLLPGSAFTIVAGIVFGPIKGGILALFSATLGAVAAFIVARFLLRNTIMKKFGDNPIFKKIDDGVAANGTSFLILTRLVPVFPFSLQNYAYGLTSLNLGTYALVSLLTMAPGAFIFAYMAGDIATNGVSVMLLVKFAVAGLVLFGMSLIPKYIAKKKGINMEELAK | failed
MTREMARLLISPSNAWPRLRQDYDHHPFAFLVPLLLLPLLPAACLFIGTTQVGWSLPGNDSVQHLSSGSALLLATMCYLGFVAGVVIMGLFVRWVLFRTPSRPSVPGSLTFTTAIAVPLMLAGIVALVPWRILLLLAAAAACAYSVRLLFTGLPLFMRMQERQTLFYAFCILGVGFLTLLTTAFIFIELWGQSLAGSGEYLR | failed
MNFWEVVLIVVNFSLLSWILLIGRETKKWSKLATLIAVVMVTVQLLAEGFRWQMIPAYVSPVILILCYLLAGRKKGFRSSGIFIVKTSLLCIYLSVAVALPLLMPVFSFEEPTGPHRVGTKLYHWVDHQRNEPYSKNPNDRRELMVQIWYPAAEKSKGDPEPYIRNINELSKGLEKTLSIPAFAFSHMELVKSHSFMDLQLSDSENHYPILLFSHGFNGFRNQNTFQVEELASQGYIVLSIDHTFDAAATVFPGGRTAYVQPINLTDEGDSHIKLWEEDVSFVLNQIEKLNENDETGFFTGRLDTSRIGMFGHSYGGATAAQILAKDSRVKAAINMDGTLYGEILPESGIGKPFLLMNAEEPDEADPFEVRERYGRGLAGGGMSMVIPHTDHTSFTDLHLFSPLLQSPGENPKEVHRIINEFSLAFFDQYVKQKDDGSTLKRLITQYPEVNFKINR | failed
TFVCASAGNHAQGFAFVCRHFGVPGVVFMPVTTPQQKIDKTRMFGAEFITIRLVGDIFDQCYKAAREHVEAIGGVMVPPFDHDDIIEGQATVAAEIAEQLPAGPVADLVVLPVGGGGLAAGVTGYLGDSLSADRFLFCEPEGAPSFRRSLELGGVVTLDQVDNFVDGAAVARIGDLNFAALRRFSPEQVMLLPENAICLTITEMLNVEGVVLEPAGALAITALEALGRDSLEGKIVVAVVSGGNF | failed
MRERKKYGKHIPKSLSSKINKRKLIQKNICTNYKTIKIIDIYENLPYNQLNNGRTKIKEIILANDVLVVLLISGISRAYNMINGEFLCEINPNNFSVVHTIVYNSYNNTLIIAYASFPAHLQCKVIDCNDLKHGITNSSKLGILFGT | failed
